Source: patent US20250332277A1 (Eli Lilly, published 2025)

How the values were obtained:
[1] = target: T1, human PTK-7 on cells (OV90-PTK-7, NCI-H446, OVCAR-3) (human, UniProt Q13308 31-1070); assay: cell-based or functional assay
T1 sequence: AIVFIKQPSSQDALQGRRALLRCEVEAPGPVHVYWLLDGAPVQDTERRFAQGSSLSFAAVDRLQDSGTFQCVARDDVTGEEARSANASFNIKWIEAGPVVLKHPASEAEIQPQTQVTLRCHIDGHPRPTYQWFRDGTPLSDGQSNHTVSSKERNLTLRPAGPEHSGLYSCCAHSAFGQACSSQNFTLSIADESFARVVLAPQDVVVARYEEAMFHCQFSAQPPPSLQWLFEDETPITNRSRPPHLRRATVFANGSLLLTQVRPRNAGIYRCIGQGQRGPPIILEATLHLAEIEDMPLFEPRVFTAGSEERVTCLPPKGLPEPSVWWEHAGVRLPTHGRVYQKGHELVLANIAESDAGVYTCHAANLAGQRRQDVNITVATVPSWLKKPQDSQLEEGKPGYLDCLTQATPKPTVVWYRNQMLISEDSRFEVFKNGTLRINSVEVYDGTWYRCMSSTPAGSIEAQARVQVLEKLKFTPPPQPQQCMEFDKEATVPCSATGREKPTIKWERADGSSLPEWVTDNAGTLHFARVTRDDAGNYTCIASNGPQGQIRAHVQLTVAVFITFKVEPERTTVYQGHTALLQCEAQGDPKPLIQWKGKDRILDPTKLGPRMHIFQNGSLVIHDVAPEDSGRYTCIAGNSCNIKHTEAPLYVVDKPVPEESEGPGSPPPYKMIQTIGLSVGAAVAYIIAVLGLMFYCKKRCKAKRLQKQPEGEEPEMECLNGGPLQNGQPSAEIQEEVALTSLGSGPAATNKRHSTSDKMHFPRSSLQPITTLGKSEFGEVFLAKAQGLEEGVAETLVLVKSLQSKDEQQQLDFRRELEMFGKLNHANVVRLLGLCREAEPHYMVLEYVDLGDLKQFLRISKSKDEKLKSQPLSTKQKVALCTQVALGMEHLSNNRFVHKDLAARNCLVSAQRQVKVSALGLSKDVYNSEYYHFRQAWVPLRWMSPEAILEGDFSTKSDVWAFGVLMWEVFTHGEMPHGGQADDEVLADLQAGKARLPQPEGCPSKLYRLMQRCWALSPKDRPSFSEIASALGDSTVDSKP

[2] = target: T2, recombinant human PTK7 (Acro Biosystems Cat. No. PT7-H52H3) (human, UniProt Q13308 31-704); assay: SPR, Biacore 8K+, ADC captured by anti-human Fc, human PTK7 as analyte, 37 C, 1:1 model
T2 construct: Bought recombinant protein; also called human PTK7 analyte
T2 sequence: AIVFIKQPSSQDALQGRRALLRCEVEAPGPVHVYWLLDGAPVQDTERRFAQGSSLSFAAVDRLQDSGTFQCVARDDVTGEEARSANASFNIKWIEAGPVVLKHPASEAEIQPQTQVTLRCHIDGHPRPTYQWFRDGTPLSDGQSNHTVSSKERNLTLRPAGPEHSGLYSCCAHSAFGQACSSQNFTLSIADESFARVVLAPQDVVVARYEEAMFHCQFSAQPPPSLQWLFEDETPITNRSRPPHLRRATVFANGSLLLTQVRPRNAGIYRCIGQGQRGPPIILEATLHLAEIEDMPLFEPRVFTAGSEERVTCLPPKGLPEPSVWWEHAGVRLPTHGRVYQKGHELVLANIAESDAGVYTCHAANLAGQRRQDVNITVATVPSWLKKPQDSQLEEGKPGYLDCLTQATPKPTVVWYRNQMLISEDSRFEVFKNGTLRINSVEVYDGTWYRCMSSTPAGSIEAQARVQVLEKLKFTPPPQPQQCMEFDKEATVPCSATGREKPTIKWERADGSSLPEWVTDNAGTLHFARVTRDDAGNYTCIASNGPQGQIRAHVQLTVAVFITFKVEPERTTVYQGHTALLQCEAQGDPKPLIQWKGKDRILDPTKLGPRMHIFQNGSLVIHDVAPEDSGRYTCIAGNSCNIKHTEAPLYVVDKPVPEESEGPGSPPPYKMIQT
Procedure: A Biacore 8K+ instrument (Cytiva, Marlborough, MA) was used to determine kinetics and affinity parameters for the binding interactions of ADCs binding to recombinant human PTK7 (Acro Biosystems Cat. No. PT7-H52H3, Newark, DE).
In each analysis cycle, a different ADC was captured on flow cell 2 of each channel by injecting a 5 μg/mL solution at 10 μL/min for 2 minutes. After capture, the same analyte was injected on flow cells 1 and 2 in all 8 channels for 2 minutes at 30 μL/min and dissociation was monitored for 10 minutes. After dissociation, all surfaces were regenerated with three consecutive 1-minute injections of 75 mM phosphoric acid at 10 μL/min. ADC capture and analyte cycles were repeated to obtain human PTK7 analyte binding of each ADC at analyte concentrations of 0, 2.47, 7.41, 22.2, 66.7, 200, and 600 nMs.
Sensorgram data were reference subtracted and blank subtracted, then globally fit with the default 1:1 binding model in Biacore Insight Evaluation Software v3.0.12.15655, as shown in Table 4.

B1: Ab4-PSAR10-VA-exatecan (other)
heavy: EVQLVESGGGLVKPGGSLRLSCAASGFTFSSYSMNWVRQAPGKGLEWVSSIDSSSSFIYYADSVKGRFTISRDNAKNSLYLQMNSLRAEDTAVYYCARGTGLFDFWGQGTLVTVSSASTKGPSVFPLAPSSKSTSGGTAALGCLVKDYFPEPVTVSWNSGALTSGVHTFPAVLQSSGLYSLSSVVTVPSSSLGTQTYICNVNHKPSNTKVDKRVEPKSCDKTHTCPPCPAPEAAGGPSVFLFPPKPKDTLMISRTPEVTCVVVSVSHEDPEVKFNWYVDGVEVHNAKTKPREEQYNSTYRVVSVLTVLHQDWLNGKEYKCKVSNKALPAPIEKTISKAKGQPREPQVYTLPPSREEMTKNQVSLTCLVKGFYPSDIAVEWESNGQPENNYKTTPPVLDSDGSFFLYSKLTVDKSRWQQGNVFSCSVMHEALHNHYTQKSLSLSPGK
light: EIVLTQSPGTLSLSPGERATLSCRASQSFSSSYLAWYQQKPGQAPRLLIYGASSRATGIPDRFSGSGSGTDFTLTISRLEPEDFAVYYCQQYGRTPWTFGQGTKVEIKRTVAAPSVFIFPPSDEQLKSGTASVVCLLNNFYPREAKVQWKVDNALQSGNSQESVTEQDSKDSTYSLSSTLTLSKADYEKHKVYACEVTHQGLSSPVTKSFNRGEC
modifications: PSAR10-VA-exatecan linker-payload (Formula XV) on cysteine thiols after full reduction of the antibody (DAR 8 procedure); positions not stated for this ADC
notes: Antibody-drug conjugate of Ab4; also called Ab4-VA-Exatecan
[1]
  Cytotoxicity IC50, OVCAR-3 cells (CellTiter-Glo, 7 days): 2.02 nM
[2]
  Kd: 101 nM
  koff: 0.0372 s⁻¹
  kon: 368000 M⁻¹ s⁻¹
